According to patent US20250019425A1 (ADRX, published 2025):
Residue numbers refer to the chain shown, from its start. Like-named read-outs stand apart in the source and are kept apart here. One block for each binder: values may come before it.

Legend:
[1] = biological target: T1, biotinylated TTR F87M L110M monomer (Avi_mTTR in vivo biotinylation construct) (human, biotin on the Avi tag (in vivo biotinylation by BirA)); assay: indirect ELISA, biotinylated mTTR on Neutravidin plate, anti-mouse-HRP
T1 construct: also called Biotinyl-Monomer; biotinyl-mTTR

[2] = biological target: TTR F87M L110M (monomeric TTR, mTTR), untagged (human, UniProt P02766 21-147); assay: sandwich ELISA, antibody coated, untagged mTTR, HRP pan-TTR polyclonal detection
[3] = biological target: T1, biotinylated TTR F87M L110M monomer …; assay: biolayer interferometry (Octet RED), antibody on anti-mouse biosensor, biotinylated TTR monomer
[4] = biological target: T2, TTR S112I (dimer TTR, dTTR), untagged (human, UniProt P02766 21-147); assay: sandwich ELISA (Example 11): antibody coated on the plate, untagged TTR titrated, HRP-conjugated pan-TTR polyclonal antibody for detection
[5] = biological target: T3, wild-type TTR (wtTTR), untagged (human, UniProt P02766 21-147); assay: as above
[6] = biological target: T2, TTR S112I (dimer TTR, dTTR), untagged; assay: as above; remark: listed apart in the source
[7] = biological target: T3, wild-type TTR (wtTTR), untagged; assay: as above; remark: listed apart in the source
[8] = biological target: T1, biotinylated TTR F87M L110M monomer …; assay: indirect ELISA, biotinylated mTTR on Neutravidin plate, anti-mouse-HRP; indirect ELISA; biotinylated mTTR captured on Neutravidin plate, anti-mouse-HRP detection
[9] = biological target: T1, biotinylated TTR F87M L110M monomer …; assay: indirect ELISA, biotinyl-mTTR bound to avidin plates
[10] = biological target: T1, biotinylated TTR F87M L110M monomer …; assay: as above; remark: listed apart in the source
[11] = biological target: biotinylated TTR S112I (dimer TTR) (human, UniProt P02766 21-147); assay: indirect ELISA (Examples 4 and 8): biotinylated TTR on Neutravidin plate, antibody titrated, HRP-conjugated anti-species antibody
[12] = biological target: T2, TTR S112I (dimer TTR, dTTR), untagged; assay: sandwich ELISA (Example 11): antibody coated on the plate, untagged TTR titrated, HRP-conjugated pan-TTR polyclonal antibody for detection; remark: listed apart in the source
[13] = biological target: T3, wild-type TTR (wtTTR), untagged; assay: as above; remark: listed apart in the source

EC50 [1]: 0.2 nM | EC50 [2]: ~14.2 nM | Kd [3]: 1.31 nM | binding result [4]: no binding (tested: about 20 µM TTR) | binding result [5]: no binding (tested: about 20 µM TTR)
B1: murine anti-human monomer TTR antibody Ab5 (antibody, V domains shown)
VH: EVQLQQSGAELVKPGASVKLSCTASGFNIKDYYMHWVKQRTEQGLEWIGRIDPEDGETKYAPKFQGKATITADTSSNTAYLQLSSLTSEDTAVYYCALLWLRRGRGYWGQGTTLTVSS
VL: DIQMTQSPSSLSASLGERVSLTCRASQEISGYLSWLQQKPDGTIKRLIYAASTLDSGVPKRFSGSRSGSDYSLTISSLESEDFADYYCLQYASYPPTFGAGTKLELK
notes: Murine monoclonal antibody; entries are called Mouse Ab5 HC / LC but hold only the variable domains; also called mAb 5; Antibody 5

EC50 [2]: ~43.2 nM | binding result [6]: no binding (tested: about 20 µM TTR) | binding result [7]: no binding (tested: about 20 µM TTR) | EC50 [8]: 4.22 nM
B2: murine anti-human monomer TTR antibody Ab7 (antibody, V domains shown)
VH: EVQLQQSGAELVKPGASVKLSCTASGFNIKDYYMHWVKQRTEQGLEWIGRIDPEDGETKYAPKFQGKATITADTSSNTAYLQLSSLTSEDTAVYYCARGKTPFAYWGQGTLVTVSA
VL: B1 VL with S56F, S67F, A92D, P96F, A100S, L106I
notes: Murine monoclonal antibody; entries are called Mouse Ab7 HC / LC but hold only the variable domains; also called Antibody 7

EC50 [1]: 0.45 nM | EC50 [2]: ~12.7 nM | Kd [3]: 11.4 nM
B4: murine anti-human monomer TTR antibody Ab6 (antibody, V domains shown)
VH: QVQLQQSGAELMKPGASVKLSCKATGYTFTGYWIEWVKQRPGHGLEWIGEILPGSGSTNYNEKFKGKATFTADTSSNTAYMQLSSLTTEDSAIYYCARLRGSSYPWYFDYWGQGTTLTVSS
VL: DIQMTQSPASLSVSVGETVTITCRASENIYSNLAWYQQKQGKSPQLLVYAATNLADGVPSRFSGSGSGTQYSLKINSLQSEDFGSYYCQHFWGTPYTFGGGTKLEIK
notes: Murine monoclonal antibody; entries are called Mouse Ab6 HC / LC but hold only the variable domains; also called Antibody 6

More lines, now with the values behind:

B3: Humanized Ab1 construct (antibody, V domains shown)
VH: QVQLVQSGAEVKKPGASVKVSCKASGYTFTSYWMHWVRQAPGQGLEWIGNIDPSDSETHYAQKFQGRATLTVDKSTSTVYMELSSLRSEDTAVYYCARGRNYWYFDVWGTGTMVTVSS
VL: DIQMTQSPSSLSASVGDRVTITCRASESVDNYGISFMNWFQQKPGKPPKLLIYAASNQGSGVPSRFSGSGSGTDFTLTISSLQPEDFATYYCQQSKEVPWTFGGGTKLEIK
notes: also called humanized antibody Ab1; humanized construct for Ab1
fold weaker than the IgG2 form of Ab1 [9]: ~10 fold | EC50 [10]: 0.55 nM | binding result [11]: no binding (tested: about 60 nM antibody)

B5: murine anti-human monomer TTR antibody Ab2 (antibody, V domains shown)
VH: EVKLEQSGGGLVQPGGSMKLSCVASGFTFSNYWMNWVRQSPEKGLEWVAQIRLKSDNYATHYAESVKGRFTISRDDSKSSVYLQMNNLRAEDTGIYYCTGVFTYWGQGTLVTVSA
VL: NIVLTQSPASLAVSLGQRATISCRTSESVDSYGNSFMHWYQQKPGQPPKLLIYLASNLESGVPARFSGSGSRTDFTLTIDPVEADDAATYYCQQNNEDPMYTFGGGTKLEIK
notes: Murine monoclonal antibody; also called mAb 2; Antibody 2
EC50 [10]: 0.16 nM | EC50 [1]: 1.45 nM | EC50 [2]: 98.9 nM | Kd [3]: 6.21 nM

B6: murine anti-human monomer TTR antibody Ab3 (antibody, V domains shown)
VH: EVQLQQSGPVLVKPGASVKMSCKASGYTFTDYYMNWVKQSHGKSLEWIGVINPYNGGTSYNQKFKGKATLTVDKSSSTAYMELNSLTSEDSAVYYCARDLTGTGGAMDYWGQGTSVTVSS
VL: QIVLTQSPAILSASPGEKVTMTCRASSSVSYMHWYQQKPGSSPKPWIYATSNLASGVPARFSGSGSGTSYSLTISRVEAEDAATYYCQQWSSNPLTFGAGTKLELK
notes: Murine monoclonal antibody; entries are called Mouse Ab3 HC / LC but hold only the variable domains; also called mAb 3; Antibody 3
EC50 [1]: 14.1 nM | EC50 [2]: 128 nM | Kd [3]: 12.1 nM | binding result [12]: no binding (tested: about 20 µM TTR) | binding result [13]: no binding (tested: about 20 µM TTR)
